From paper PMC13323110, “Structure and substrate recognition by the bacterial twin-arginine translocation (Tat) core complex” (Nature Microbiology, 2026) come the findings set out here.

Usually stoichiometry N stands for the number of molecules, sites or subunits per partner or assembly.

For data set [1], the target named is N. salsuginis TatC (GFP-His removed) (Nitratifractor salsuginis). Nature of the data set: cryo-EM structure; co-expressed TatBC complexes (E. coli, N. salsuginis, M. xanthus) and N. salsuginis TatAC complex, solubilised and purified in GDN.
Data set [2] addresses N. salsuginis TatBC complex (Nitratifractor salsuginis). Nature of the data set: cryo-EM structure; 50 μl N. salsuginis TatBC (A280nm = 8.0) mixed with 50 μl CueO peptide (1 mg/ml), 12 h at 4 °C, in GDN.
Data set [3] has as its target T1, E. coli TatBC complex purified by a Twin-Strep tag on TatC (sample of the TatBC-MdoD structure) (Escherichia coli, UniProt P69425 1-171; P69423 1-258).
T1 construct: TatB of Escherichia coli, as m1; TatC of Escherichia coli, as m5; No TatA density was found; source: E. coli, overexpressed TatABC purified solely by the TatC Twin-Strep tag in GDN; only very low levels of TatA in the purified material; copies: 3 + 3
T1 sequence 1: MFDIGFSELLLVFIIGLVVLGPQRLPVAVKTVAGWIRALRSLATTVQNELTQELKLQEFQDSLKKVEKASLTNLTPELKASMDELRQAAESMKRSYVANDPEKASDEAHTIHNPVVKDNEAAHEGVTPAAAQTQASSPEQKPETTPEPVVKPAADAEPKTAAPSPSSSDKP
T1 sequence 2: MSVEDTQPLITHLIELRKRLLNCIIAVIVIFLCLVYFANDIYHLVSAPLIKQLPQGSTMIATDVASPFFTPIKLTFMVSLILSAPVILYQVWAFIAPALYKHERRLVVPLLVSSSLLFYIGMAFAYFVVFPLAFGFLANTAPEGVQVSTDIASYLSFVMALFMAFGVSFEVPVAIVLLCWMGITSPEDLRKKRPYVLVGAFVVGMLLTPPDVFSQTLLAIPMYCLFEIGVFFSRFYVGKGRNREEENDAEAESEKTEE
Nature of the data set: cryo-EM structure; complex assembled in vitro: Ulp1-cut His6-SUMO-MdoD or -CueO mixed with purified E. coli TatBC or TatABC complex overnight at 4 °C, SEC in 50 mM Tris pH 8.0, 200 mM NaCl, 1 mM EDTA, 0.02% GDN; excess substrate. Particulars: both partners purified.

Data set [4] deals with the molecule itself. The data set is described as above.
Data set [5] deals with the molecule itself. Nature of the data set: crystal structure; SeMet-labelled isolated periplasmic domain; sitting drop, 21 °C, 0.2 M lithium sulphate, 0.1 M Tris pH 8.5, 10% PEG 8000, 10% PEG 1000.
Data set [6] deals with the molecule itself. Nature of the data set: cryo-EM structure; co-expressed TatBC complexes (E. coli, N. salsuginis, M. xanthus) and N. salsuginis TatAC complex, solubilised and purified in GDN.
Data set [7] has as its target T2, E. coli TatC with C-terminal Twin-Strep tag, expressed from a tatABC plasmid (Escherichia coli, UniProt P69423 1-258).
T2 construct: TatC of Escherichia coli, PCR from E. coli genomic DNA (DSM 1116); also called TatC_(strep); not shown: Twin-Strep, C-terminal, kept
T2 sequence: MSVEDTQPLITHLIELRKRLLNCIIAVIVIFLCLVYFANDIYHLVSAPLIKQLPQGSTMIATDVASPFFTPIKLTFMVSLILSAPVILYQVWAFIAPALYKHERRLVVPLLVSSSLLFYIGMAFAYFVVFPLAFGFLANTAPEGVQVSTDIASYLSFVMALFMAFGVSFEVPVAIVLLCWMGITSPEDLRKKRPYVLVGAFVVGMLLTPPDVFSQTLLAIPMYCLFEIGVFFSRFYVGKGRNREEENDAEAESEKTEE
Nature of the data set: densitometry of Coomassie-stained SDS-PAGE of purified complexes; purified TatABC (TatA_26(His)6_TatBC) and TatBC (TatBC_(His)6) at four dilutions, bands quantified with ImageJ. The following applies: both partners purified.

Data set [8] concerns the target T2, E. coli TatC with C-terminal Twin-Strep …. Nature of the data set: cryo-EM structure; purified E. coli TatABC with an ALFA tag inserted in TatA or TatB, labelled with an anti-ALFA nanobody; 2D class averages and a 6.4 Å map. Particulars: both partners purified.
The target in data set [9] is T3, E. coli TatC of the His-tagged TatBC complex (TatBC_(His)6) (Escherichia coli), P69423.
T3 chain: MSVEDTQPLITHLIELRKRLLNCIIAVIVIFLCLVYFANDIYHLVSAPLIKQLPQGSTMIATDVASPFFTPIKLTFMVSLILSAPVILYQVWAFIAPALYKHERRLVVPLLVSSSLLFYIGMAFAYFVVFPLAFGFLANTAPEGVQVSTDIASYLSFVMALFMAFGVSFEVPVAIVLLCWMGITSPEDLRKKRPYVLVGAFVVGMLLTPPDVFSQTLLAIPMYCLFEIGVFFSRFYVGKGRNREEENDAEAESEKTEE
Nature of the data set: cryo-EM structure; co-expressed TatBC complexes (E. coli, N. salsuginis, M. xanthus) and N. salsuginis TatAC complex, solubilised and purified in GDN. The following applies: remark: other sources report otherwise.

The molecule “N. salsuginis TatC (GFP-His removed) (natural protein)” had a stoichiometry N in [1] of 3.

B1: E. coli CueO signal peptide (residues 1-28) (peptide)
peptide: MQRRDFLKYSVALGVASALPLWSRAVFA
In data set [2], B1 registered a stoichiometry N (signal peptide per TatB and TatC) of 1.

B2: E. coli MdoD, full length with its Tat signal peptide (natural protein, Escherichia coli, UniProt P40120 1-551, looked up)
chain: MDRRRFIKGSMAMAAVCGTSGIASLFSQAAFAADSDIADGQTQRFDFSILQSMAHDLAQTAWRGAPRPLPDTLATMTPQAYNSIQYDAEKSLWHNVENRQLDAQFFHMGMGFRRRVRMFSVDPATHLAREIHFRPELFKYNDAGVDTKQLEGQSDLGFAGFRVFKAPELARRDVVSFLGASYFRAVDDTYQYGLSARGLAIDTYTDSKEEFPDFTAFWFDTVKPGATTFTVYALLDSASITGAYKFTIHCEKSQVIMDVENHLYARKDIKQLGIAPMTSMFSCGTNERRMCDTIHPQIHDSDRLSMWRGNGEWICRPLNNPQKLQFNAYTDNNPKGFGLLQLDRDFSHYQDIMGWYNKRPSLWVEPRNKWGKGTIGLMEIPTTGETLDNIVCFWQPEKAVKAGDEFAFQYRLYWSAQPPVHCPLARVMATRTGMGGFSEGWAPGEHYPEKWARRFAVDFVGGDLKAAAPKGIEPVITLSSGEAKQIEILYIEPIDGYRIQFDWYPTSDSTDPVDMRMYLRCQGDAISETWLYQYFPPAPDKRQYVDDRVMS
notes: MdoD of Escherichia coli, precursor with its 32-residue Tat signal peptide; source: E. coli BL21 (DE3) ΔtatABCD ΔtatE, pET28a with N-terminal His6-SUMO, purified (His tag column), cut with Ulp1; not shown: His6, N-terminal, cleaved; SUMO, N-terminal, cleaved
For the molecule B2, the “stoichiometry N” value in data set [3] was 3 MdoD per (TatBC)3 complex; in data set [4], 2.

B3: M. xanthus TatC periplasmic domain (residues 127-303) (domain or fragment, Myxococcus xanthus, UniProt Q2PHA2 127-303, looked up)
chain: SMFTFLLNEEETLALEQRLDTARLRADDALRFLRLGEAEEAGRIAKETSTQLRAEGQGQAPAPEVAPAASVEMTGRLDGLGRLLDAASVGYGAQSRGVLRQAVEKRVEAVTAYEKKDFAAAAAAMDGSASLLAGIAPTRTEELAGLWRLEKELATAHAAHEAARWTRPMLSMHEQLS
modifications: selenomethionine-labelled
notes: periplasmic domain of TatC of Myxococcus xanthus, residues 127-303; also called M. xanthus insert; source: E. coli B834 (DE3), pET15b, SelenoMethionine media, purified (Ni-NTA, TEV, SEC)
With B3, in [5], the “stoichiometry N” value came out at 3.

B4: M. xanthus TatC (GFP-His removed) (natural protein, Myxococcus xanthus)
chain: MSLADHLTELRSRLMRCTIAVLILGTISLVFAKPIFGLLMQPVLDALPPENRSLIYTSGIEELNVLMKVGVYCGIFLTTPVILMQIWGFVSPGLYPEERRFAAPFVAFGSIAFLLGAAFCYFAVLPSMFTFLLNEEETLALEQRLDTARLRADDALRFLRLGEAEEAGRIAKETSTQLRAEGQGQAPAPEVAPAASVEMTGRLDGLGRLLDAASVGYGAQSRGVLRQAVEKRVEAVTAYEKKDFAAAAAAMDGSASLLAGIAPTRTEELAGLWRLEKELATAHAAHEAARWTRPMLSMHEQLSLVLLLILAFGIIFELPLVMALLGVVGVVKSSWLFRYQRHAFVVCLIAAAIITPTGDVVNLSLMAGPMLLCYELGVLLVWMVERRRARNSAETGITPAS
notes: TatC of Myxococcus xanthus (ATCC 19368), codon-optimised synthetic gene; has a folded periplasmic insert domain
Turning to B4, in [6], the “stoichiometry N” value came to 3.

B5: E. coli TatB (natural protein, Escherichia coli)
chain: MFDIGFSELLLVFIIGLVVLGPQRLPVAVKTVAGWIRALRSLATTVQNELTQELKLQEFQDSLKKVEKASLTNLTPELKASMDELRQAAESMKRSYVANDPEKASDEAHTIHNPVVKDNEAAHEGVTPAAAQTQASSPEQKPETTPEPVVKPAADAEPKTAAPSPSSSDKP
notes: TatB of Escherichia coli, PCR from E. coli genomic DNA (DSM 1116); residues 1-63 modelled in the TatBC structure; source: E. coli MC4100 ΔtatABCD ΔtatE, overexpressed from a plasmid with TatC (and TatA), purified in GDN as part of the complex
In the case of B5, the “ratio of TatB to TatC in the TatABC complex relative to the TatBC complex” value in data set [7] was found to be 0.78. Further, the binding result in data set [6] is “binds”.

B6: E. coli TatB with an inserted ALFA-His tag (natural protein, Escherichia coli, UniProt P69425 1-171, looked up)
chain: MFDIGFSELLLVFIIGLVVLGPQRLPVAVKTVAGWIRALRSLATTVQNELTQELKLQEFQDSLKKVEKASLTNLTPELKASMDELRQAAESMKRSYVANDPEKASDEAHTIHNPVVKDNEAAHEGVTPAAAQTQASSPEQKPETTPEPVVKPAADAEPKTAAPSPSSSDKP
notes: TatB of Escherichia coli; also called TatB_(ALFA)
In the case of B6, in data set [8], the “stoichiometry N” value amounted to 2 TatB per core complex.

B7: E. coli TatC of the His-tagged TatBC complex (TatBC_(His)6), P69423 1-258 (natural protein)
chain: MSVEDTQPLITHLIELRKRLLNCIIAVIVIFLCLVYFANDIYHLVSAPLIKQLPQGSTMIATDVASPFFTPIKLTFMVSLILSAPVILYQVWAFIAPALYKHERRLVVPLLVSSSLLFYIGMAFAYFVVFPLAFGFLANTAPEGVQVSTDIASYLSFVMALFMAFGVSFEVPVAIVLLCWMGITSPEDLRKKRPYVLVGAFVVGMLLTPPDVFSQTLLAIPMYCLFEIGVFFSRFYVGKGRNREEENDAEAESEKTEE
B7 returned a stoichiometry N in [9] of 3.

B8: E. coli TatA with an inserted ALFA-His tag (natural protein, Escherichia coli, UniProt P69428 1-89, looked up)
chain: MGGISIWQLLIIAVIVVLLFGTKKLGSIGSDLGASIKGFKKAMSDDEPKQDKTSQDADFTAKTIADKQADTNQEQAKTEDAKRHDKEQV
notes: TatA of Escherichia coli; also called TatA_(ALFA); TatA_(ALFA,His); not shown: ALFA, internal (in the cytoplasmic part of TatA), kept
As for B8, the “stoichiometry N” value in data set [8] was 1 TatA per core complex.
